Measured values: patent US20030175243A1

Each substance was assayed against natural cellular receptor for adenoviruses, on human 293 cells (assay: cell-based or functional assay).

“GRP fiber (Ad5 fiber with a 12-residue spacer arm and the GRP peptide at its C-terminal end), carried by AdTG4628 (from UniProt P11818 1-581)” was tested. Which multiplication factor of the virus in 293 cells (7 days post-infection) (multiplication factor) did it give?
Its multiplication factor of the virus in 293 cells (7 days post-infection) (multiplication factor) is 1000.

For “Ad5 fiber with the mutation L457K (from UniProt P11818 1-581)”, which propagation of the corresponding virus in 293 cells (multiplication factor) (multiplication factor) is on record?
Its propagation of the corresponding virus in 293 cells (multiplication factor) (multiplication factor) is less than 1.

“Ad5 fiber CD5 to CD3 (replacement of the CD loop of an Ad5 with its equivalent from an Ad3)” was tested. Which propagation of the corresponding virus in 293 cells (multiplication factor) (multiplication factor) did it give?
The propagation of the corresponding virus in 293 cells (multiplication factor) (multiplication factor) was less than 1.

For “Ad5 fiber with the mutation A455F (from UniProt P11818 1-581)”, which propagation of the corresponding virus in 293 cells (multiplication factor) (multiplication factor) is on record?
Its propagation of the corresponding virus in 293 cells (multiplication factor) (multiplication factor) is less than 1.

For “Ad5 fiber with the mutation I459A (from UniProt P11818 1-581)”, which propagation of the corresponding virus in 293 cells (multiplication factor) (multiplication factor) is on record?
The propagation of the corresponding virus in 293 cells (multiplication factor) (multiplication factor) was less than 1.

With “Ad5 fiber ΔCD+D (deletion of the CD loop and of the D sheet) (from UniProt P11818 1-581)” as the substance, how does the propagation of the corresponding virus in 293 cells (multiplication factor) (multiplication factor) read?
Its propagation of the corresponding virus in 293 cells (multiplication factor) (multiplication factor) is less than 1.

With “Ad5 fiber ΔD (deletion of the D sheet of the Ad5 fiber) (from UniProt P11818 1-581)” as the substance, how does the propagation of the corresponding virus in 293 cells (multiplication factor) (multiplication factor) read?
The propagation of the corresponding virus in 293 cells (multiplication factor) (multiplication factor) was less than 1.

“Ad5 fiber with the mutation G443D (from UniProt P11818 1-581)” was tested. Which propagation of the corresponding virus in 293 cells (multiplication factor) (multiplication factor) did it give?
Its propagation of the corresponding virus in 293 cells (multiplication factor) (multiplication factor) is less than 1.
